Tested on: MS2 coat protein
Test: apparent KD of MS2 coat protein; higher = weaker reporter binding
Conditions: Eterna round: R107
Procedure, shortened: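 Designed RNA switches were made by on-chip transcription from Illumina sequencing clusters and then titrated with SNAP-549-labelled MS2 coat protein. Twofold steps ran from 0.7 or 1.5 nM to 3 µM, each lasting 0.8–1.5 h early and 10–20 min late, in 100 mM Tris-HCl pH 7.5, 80 mM KCl, 4 mM MgCl2, without or with constant ligand. Apparent KD is the per-design median of normalised cluster binding-curve fits.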

[1] = input ligand: theophylline 20 uM
[2] = input ligand: theophylline 2 mM
[3] = input ligand: tryptophan 2.4 mM

Sequence	apparent KD of MS2 coat protein (input ligand: arginine 13.2 mM) [nM]	apparent KD of MS2 coat protein [1] [nM]	apparent KD of MS2 coat protein [2] [nM]	apparent KD of MS2 coat protein (input ligand: none) [nM]	apparent KD of MS2 coat protein [3] [nM]
UCGGUUUUCUACAUGAGGAUCACCCAUGUCCGAGGACCGGUACGGCCGCCACUCGCAAUCAAACAGACGUGGGCCAAAUUUGCGU [Isinso]	11.8	14.8	11.6		
UCGUAGCUAGGAAGGAGCGCAUACUUCACAUGAGGAUCACCCAUGUCGAGACGUGAGUCAGUGCAGGUAGGUCGCCUAGCUAUGA [Same State - Arginine B (Freestyle 26)]	18.2	22.3	21.5	17.6	19.3
UCGUUUGAGGCGGCCGCCACUGGUCUCAUGGUCAACAUGAGGAUCACCCAUGUAUCUUUGCCAAGCAGGACCGGGCCUCGAGCGA [#20 Exclusion Tryptophan B]	28.1	41.4	29.1	23.6	14.8
UCGUUUUAGUCGGCCGCCACUGGUCUCAUGUUCAACAUGAGGAUCACCCAUGUAUCUUAUUUUAACAGGACCGGGACGUAAUAGA [#16 Exclusion Tryptophan B]	90.8	88.2	140		
UCUACAUGAGGAUCACCCAUGUGCCAUGAUACCAGACAUGAAAAUGUCCCUUGGCAGCAUGGGUAGCGCAUCCGAAAGGAUGCGU [#06 SameState-TheophyllineA]	42.4	155			33.4
UCUGGGUGCGCAAGGACCUGGAGUUGCGAUACCAGCACGGUAACGUGCCCUUGGCAGCGCACAUGAGGAUCACCCAUGUGGUGUU [#1 Exclusion - Theophylline A Attempt #18 (HarryS)]	65.6	247			204
UCUUACUAUAGUGAUACCAGACGUACAUGAGGAUCACCCAUGUUACAUUCUUGGUUAAAAGUCCCUUGGCAGCACGAUUUGUUCG [JR_Nu_ExcTheophyB_Sub026]	9.88	10.8			9.76
UGAACAUGAGGAUCACCCAUGUAGUCAGAUACCAGACACUGCAUGGUCCCUUGGCAGCUGAAGAGCGUUUGCCAAAUAACGUUCA [Theo A SS t4]	52	223			258
UGACAUGAGGAUCACCCAUGUGUAAGAGAAGGAGCGGCCGGAAGGCCAGGUAGGUCGCUCAGGUAGCGUGAGGAUCACCCGUGUG [big_hook]	81.8	130	97.5	161	35.7
UGACAUUGCUCAGAUACCAGACAUGAGGAUCACCCAUGUACCAAGGUACCCGAAAGGAAUGUCCCUUGGCAGCUGAGCAAUGUCU [TheoBX 3 #MS2Left #Theo2 #StaticStem]	11.7	11.9			11
UGAUCCUACAGAGAUACCAGUGCCGCUGAGUGACCAGACACAUGAGGAUCACCCAUGUAACACCCUUGGCAGCUCAACUAGAGGG [Same State Theophylline B GF19]	12.8	18.7	98.7	18.4	22
UGAUGGAACGGAAGGAGCGUGUAAGAACAAGAACAUGAGGAUCACCCAUGUAUUAAUUUAACACAGGUAGGUCGCCGAGUUAUUG [11.F]	9.42	42.1	28.6	16.9	15.9
UGAUGGUUCGGAAGGAGCGUGUAAGAACAAGAACAUGAGGAUCACCCAUGUAUUAAUUUAACACAGGUAGGUCGCCGAGUUAUUG [11.I]	12.6	22.1	28.9	15.9	17
UGGCGAGAAGGAAGGAGCGUCAGCUGAGUCACAUGAGGAUCACCCAUGUCGCACAUAGUGUGACAGGUAGGUCGCCUUCUGCCCU [Beinmain]	84.9	152	239	134	156
UGGCGAGAAGGAAGGAGCGUCAGCUGAGUUACAUGAGGAUCACCCAUGUUGCACAUAGUGUGACAGGUAGGUCGCCUUCUGCCCU [SS-ArgB19]	38	63.7	37.5	44.1	37.6
UGGUACAUGAGGAUCACCCAUGUUCCAGAUACCAGAUACCCGGUUAUCCCUUGGCAGCUGGUGGUACAUGAGGAUCACCCAUGUG [Exclusion Theophylline A GF15]	32.9	58.9			44
UGGUACAUGAGGAUCACCCAUGUUCCAGAUACCAGUGUCCCGCUGCACCCUUGGCAGCUGGUGGCACAUGAGGAUCACCCAUGUG [Exclusion Theophylline A GF12]	11.5	16.3			15.1
UGUAAAAUAACAGAUACCAGCGUGUUAUAAAACAUGAGGAUCACCCAUGUAGUGAUCAAGCGCCCUUGGCAGCUGGUAUUUUAUG [7.D]	105	171			140
UGUAUGGACUGAAGGAGCGGGAAAAUAAGAUGAGGAUCACCCAUCUAAAAGGCGAAAGCCACCCAGGUAGGUCGCAGUCCAUACU	27.7	34.8	8.34	8.99	7.03
